Consider 1 molecule from US20210246223A1 (CRD PHARMACEUTICALS, published 2021).

One test addresses T1, EGFR (UniProt P00533 25-645, limits assumed).
T1 construct: Coated on the ELISA plate at 1 µg/ml and also used in the western blot; also called HER1; ErbB1
In words: ELISA, plate coated with 1 µg/ml EGFR, increasing concentration of 29Z6. The protocol: (§1) ELISA plate was coated with 1 μg/ml of EGFR, HER2, or extracellular domain of HER3. The ELISA was incubated with increasing concentration of 29Z6 followed by incubation with HRP-goat-anti mouse IgG to detect 29Z6 antibody binding. […] Confirmation of the binding specificity was undertaken using western blotting. Only HER3 was bound to 29Z6 while EGFR or HER2 didn't (FIG. 10).
A general note: In an ELISA, binding on a coated surface is turned into a signal by an enzyme label.

The target in a further test is T2, HER2 (UniProt P04626 23-652, limits assumed).
T2 construct: Coated on the ELISA plate at 1 µg/ml and also used in the western blot; also called ErbB2; Neu
Put plainly: ELISA, plate coated with 1 µg/ml HER2, increasing concentration of 29Z6. The protocol: as §1

The target of test [1] is T3, HER3-Fc fusion comprising the extracellular domain (aa 20-643) of human HER3 (human, UniProt P21860 20-643).
T3 construct: range 20-643; also called human HER3-Fc fusion protein
T3 sequence (P21860 20-643 limits assumed): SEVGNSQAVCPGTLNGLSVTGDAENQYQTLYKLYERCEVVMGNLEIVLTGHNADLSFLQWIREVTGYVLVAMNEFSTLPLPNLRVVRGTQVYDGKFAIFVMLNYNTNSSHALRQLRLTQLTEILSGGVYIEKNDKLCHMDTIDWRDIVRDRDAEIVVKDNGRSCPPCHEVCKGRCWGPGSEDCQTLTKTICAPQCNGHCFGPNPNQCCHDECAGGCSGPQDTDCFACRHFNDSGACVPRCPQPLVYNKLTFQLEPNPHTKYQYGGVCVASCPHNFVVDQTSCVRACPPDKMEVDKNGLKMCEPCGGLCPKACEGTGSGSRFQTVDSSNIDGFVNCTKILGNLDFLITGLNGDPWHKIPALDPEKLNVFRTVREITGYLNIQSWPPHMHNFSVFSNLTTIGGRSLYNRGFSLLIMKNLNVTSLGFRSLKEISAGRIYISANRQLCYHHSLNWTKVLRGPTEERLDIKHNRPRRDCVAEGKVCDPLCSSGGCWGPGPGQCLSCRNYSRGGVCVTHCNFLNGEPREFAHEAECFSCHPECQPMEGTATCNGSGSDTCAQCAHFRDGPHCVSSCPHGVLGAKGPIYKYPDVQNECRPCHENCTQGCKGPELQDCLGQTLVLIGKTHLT
Put plainly: ELISA, HER3-Fc coated at 1 µg/ml, serial dilution of IgG 29Z6, anti-mouse Fc-HRP detection. How it is done: Antigen binding of IgG 29Z6 was analyzed in ELISA using immobilized HER3-Fc fusion comprising the extracellular domain (aa 20-643) of human HER3. The HER3-Fc fusion protein was coated onto polystyrene microtiter plates at 1 μg/ml in PBS. Remaining binding sites were blocked with PBS, 2% skimmed milk (MPBS). Plates were then incubated with a serial dilution of IgG 29Z6 in MPBS. After washing, bound antibody was detected with an HRP-conjugated anti-mouse Fc antibody and TMB, H₂O₂ as substrate.

Test [2] has as its target T4, extracellular domain of HER3 (human, UniProt P21860 20-643).
T4 construct: extracellular domain; also called purified extracellular domain of HER3; HER3 receptor ectodomain
Put plainly: SPR (Biacore 3000), HER3 extracellular domain amine-coupled on CM5, 29Z6 mAb as analyte, 1:1 model, 25° C. How it is done:
(§2) The binding kinetics of the 29Z6 mAb was analysed by surface plasmon resonance (SPR) using a Biacore3000 optical sensor platform equipped with research-grade CM5 sensor (GE Healthcare Bio-Sciences Corp., Piscataway, N.J.). Purified extracellular domain of HER3 was immobilized on the sensor chip surface of a carboxylated dextran-coated gold film using the standard amine coupling kit following the manufacturer's protocol. Briefly, 70 μL of a mixed solution of NHS/EDC (1:1, v/v) was injected to activate the carboxylated dextran, followed by manual injection of protein in 10 mM NaOAc (pH 4.5) until the desired surface density was reached. Ethanolamine 1 M in water (pH 8.5) was then injected to de-activate residual NHS-esters on the sensor chip. […] Kinetic data were evaluated by globally fitting the sensorgrams to a simple 1:1 interaction model using the Biacore software BiaEvaluation version 4.1 (GE Healthcare Bio-Sciences Corp.). The equilibrium KDs were determined from the resulting kinetic association and dissociation rates (kd/ka), and a minimum of nine independent runs were used to generate the reported standard deviations. A 1:1 binding model was used together with experimentally determined RMax as fixed parameter to determine association rate constant (ka), dissociation rate constant (kd), and equilibrium dissociation constant (KD). […]

The target in test [3] is T4, extracellular domain of HER3. In words: SPR (Biacore 3000), HER3 extracellular domain amine-coupled on CM5, 29Z6 mAb 0.1-300 nM as analyte, 1:1 model, 25° C. The protocol: as §2
In general terms: In SPR one partner is held on a chip, and binding of the other changes the refractive index at the surface.

T4 sequence (P21860 20-643): as the sequence (P21860 20-643 limits assumed) above

B1: anti-HER3 monoclonal antibody 29Z6 (antibody, mouse IgG2a, kappa, V domains shown)
VH: EVQLQESGPSLVKPSQTLSLTCYVTGDSITSGYWNWIRKFPGNKLEYMGYINYSGSTYYNPSLKSRISIIRDTSQNHYNLLLNSVTTEDTATYYCARLGTYYRYAGAMDYWGQGTSVTVSS
VL: DDVLTQTPLSLPVSLGDQASISCRSSQSLVHSNGNTYLHWYLQKPGQSPKLLIYKVSNRFSGVPDRFSGSGSGTDFTLKISRVEAEDLGVYFCSQSTHVPYTFGGGTKLEIKR
notes: also called IgG 29Z6; 29Z6 mAb
In the case of B1, in the test with EGFR, the binding result is “no binding”. In the test with HER2, the binding result is recorded as “no binding”. Further, the midpoint of the response in test [1], the EC50, lay at 0.88 nM. Also, in test [2], the koff (usually the rate constant with which the complex falls apart) turned out to be 0.000295 s⁻¹ and the association rate constant (kon) (usually a measure of how fast the partners come together) is 188000 M⁻¹ s⁻¹. Binding in test [3] was put at a Kd of 0.8 nM.
